From US6322962A, “Sterol-regulated Site-1 protease and assays of modulators thereof” (Board of Regents, The University of Texas System, priority 1999, dated 2001)
Each block holds one molecule with its values, some of them ahead of it.

What was measured:
purified S1P(983)-C = target: T1, purified S1P(983)-C (Cricetulus griseus, UniProt Q9Z2A8, T875N); assay: HPLC assay for S1P activity with 16-amino acid synthetic peptides; type: biochemical, hamster; conditions: 4 h, 37° C.
T1 construct: Truncated S1P (amino acids 1-983); GGR linker (NotI site); made in house; host or cells: SRD-12B cells (mutant CHO cells lacking S1P) stably transfected with pCMV-S1P(983)-Myc-His (TR-3117, 'S1P(983) cells'); secreted into the medium and purified on Ni-NTA
T1 sequence (Q9Z2A8 187-983 T875N): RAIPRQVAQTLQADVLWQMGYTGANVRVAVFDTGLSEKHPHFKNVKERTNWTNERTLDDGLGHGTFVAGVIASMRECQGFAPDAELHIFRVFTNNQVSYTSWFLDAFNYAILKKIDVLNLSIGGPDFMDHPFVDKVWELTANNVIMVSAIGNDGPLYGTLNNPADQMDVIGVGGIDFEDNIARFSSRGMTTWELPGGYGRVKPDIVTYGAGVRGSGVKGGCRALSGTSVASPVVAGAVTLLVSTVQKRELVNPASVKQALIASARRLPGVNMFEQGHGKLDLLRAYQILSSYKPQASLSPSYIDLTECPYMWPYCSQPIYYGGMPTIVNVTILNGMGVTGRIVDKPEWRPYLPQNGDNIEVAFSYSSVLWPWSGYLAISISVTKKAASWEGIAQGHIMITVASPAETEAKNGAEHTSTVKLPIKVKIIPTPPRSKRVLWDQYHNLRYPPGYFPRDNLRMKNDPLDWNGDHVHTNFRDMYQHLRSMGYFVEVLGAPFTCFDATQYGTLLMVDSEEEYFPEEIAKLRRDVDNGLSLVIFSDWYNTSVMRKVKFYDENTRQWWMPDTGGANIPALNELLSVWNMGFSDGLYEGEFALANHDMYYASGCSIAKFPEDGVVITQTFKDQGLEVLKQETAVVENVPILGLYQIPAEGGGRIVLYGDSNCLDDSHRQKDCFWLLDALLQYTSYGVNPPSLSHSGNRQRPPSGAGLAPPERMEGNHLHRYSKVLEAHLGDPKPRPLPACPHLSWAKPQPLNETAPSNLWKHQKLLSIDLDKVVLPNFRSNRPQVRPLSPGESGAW
Protocol: HPLC Assay for S1P Activity
Each reaction was carried out in a final volume of […] of assay buffer (see above) containing a 16-amino acid synthetic peptide (final concentration 300 μM); and 3 μg purified S1P(983)-C. After incubation for 4 h at 37° C., the reaction products were separated by reverse-phase HPLC on a 4.6×250-mm RP300 column using a Waters HPLC system. Chromatography was performed in 0.1% (v/v) trifluoroacetic acid at 0.75 ml/min. […] Peptide masses were measured by matrix-assisted laser desorption/ionization (MALDI) mass spectrometry using a Voyager DE time-of-flight mass spectrometer from PerSeptive Biosystems (Framingham, Mass.) with α-cyano-4-hydroxycinnamic acid (Aldrich Chemical, Dorset, UK) as the matrix.
The failure of S1P(983)-C to cleave the RSVL-MCA peptides (SEQ ID NO:11) might have been due to an inability of the enzyme to recognize the RSVL sequence (SEQ ID NO:11), or alternatively it might be due to the resistance of the peptide-MCA bond to cleavage. To distinguish between these possibilities, the inventors prepared 16-residue peptides composed of the amino acids surrounding the internal cleavage Site-B in S1P (i. e., RSLK, SEQ ID NO:18) or Site-1 in SREBP-2 (i. e., RSVL, SEQ ID NO:11). The peptides were incubated with or without purified S1P(983)-C, and the products were separated by HPLC. […]

SREBP-2 = assay: Immunoblot of nuclear SREBP-2 in CHO-7, S1P(1052) and S1P(983) cells; type: cell-based, hamster; conditions: CHO-7 cells
Protocol: FIGS. 20(A-C). […] FIG. 20A. […] FIG. 20B and FIG. 20C. […] FIG. 20B. […] FIG. 20C. […] Molecular mass standards are expressed in kDa.
The amount was increased when the cells were further deprived of sterols by treatment with compactin (FIG. 20C, lane 2). The band disappeared when the compactin-treated cells were incubated with sterols (FIG. 20C, lane 3). […] In the absence of sterols, nuclear SREBP-2 was found in both the S1P(1052) cells and the S1P(983) cells either in the absence or presence of compactin (FIG. 20C, lanes 7,8,10,11). In both cases nuclear SREBP-2 was abolished by addition of sterols (FIG. 20C, lanes 9 and 12). […] The bottom panel of FIG. 20C confirms that membranes from all of the cells contained the precursor form of SREBP-2.

S1P = assay: Immunoblot of processing of S1P to the B and C forms in transfected cells; conditions: S1P(1052) and S1P(983) cells, compactin plus or minus sterols
Excerpt: Sterol-regulated cleavage of SREBP-2 in SRD-12B cells expressing full-length or truncated S1P. […] SS denotes signal sequence; Pro denotes the propeptide region of S1P; TM denotes transmembrane domain; Ser414 is the active-site serine residue. […] On day 0, cells were set up for studies at a density of 1×10^6 cells/100-mm dish in medium B supplemented with 5% fetal calf serum. On day 2, the cells were switched to medium B containing 5% newborn calf lipoprotein-deficient serum and the indicated addition: none (FIG. 20B and FIG. 20C, lanes 1,4,7,10); 50 μM compactin and 50 μM mevalonate (FIG. 20B and FIG. 20C, lanes 2,5,8,11); 50 μM compactin, 50 μM mevalonate, and a mixture of 1 μg/ml 25-hydroxycholesterol plus 10 μg/ml cholesterol (FIG. 20B and FIG. 20C lanes 3,6,9,12). […] Aliquots of the 10^5 g membrane fraction (10 μg protein) were subjected to SDS-PAGE and immunoblotted with 0.5 μg/ml of anti-Myc monoclonal antibody 9E10. The filters were exposed to Kodak X-Omat Blue XB-1 film for 1 s at room temperature. […]
To quantify expression of the transfected S1P, the cells were homogenized, and a crude membrane pellet was subjected to SDS-PAGE and immunoblotted with an antibody against the Myc tag (FIG. 20B). […]

[1] = target: T2, Ac-VFRSLK-MCA (Artificial Sequence)
T2 sequence (peptide, N-terminal acetyl; C-terminal amide of 7-amino-4-methyl-coumarin (MCA)): VFRSLK

[2] = target: T3, Ac-VFASLK-MCA (Artificial Sequence)
T3 sequence (peptide, N-terminal acetyl; C-terminal amide of 7-amino-4-methyl-coumarin (MCA)): VFASLK

[3] = target: T4, Boc-RVRR-MCA (Artificial Sequence)
T4 sequence (peptide, N-terminal Boc; C-terminal amide of 7-amino-4-methyl-coumarin (MCA)): RVRR

[4] = target: T5, Ac-VFRSRR-MCA (Artificial Sequence)
T5 sequence (peptide, N-terminal acetyl; C-terminal amide of 7-amino-4-methyl-coumarin (MCA)): VFRSRR

[5] = target: T6, Ac-RSLK-MCA (Artificial Sequence)
T6 sequence (peptide, N-terminal acetyl; C-terminal amide of 7-amino-4-methyl-coumarin (MCA)): RSLK

[6] = target: T7, Ac-RSVL-MCA (Artificial Sequence)
T7 sequence (peptide, N-terminal acetyl; C-terminal amide of 7-amino-4-methyl-coumarin (MCA)): RSVL

[7] = target: T8, Ac-SGRSVL-MCA (Artificial Sequence)
T8 sequence (peptide, N-terminal acetyl; C-terminal amide of 7-amino-4-methyl-coumarin (MCA)): SGRSVL

[8] = target: T2, Ac-VFRSLK-MCA (Artificial Sequence); remark: listed apart in the source
[9] = target: T9, Ac-SGSGRSVL-MCA (Artificial Sequence)
T9 sequence (peptide, N-terminal acetyl; C-terminal amide of 7-amino-4-methyl-coumarin (MCA)): SGSGRSVL

cleavage of 16-residue peptide (purified S1P(983)-C): did cleave
Molecule: NH2 -His-Ser-Gly-Ser-Gly-Arg-Ser-Val-Leu-Ser-Phe-Glu-Ser-Gly-Ser-Gly-COOH (H-HSGSGRSVLSFESGSG-OH) [SEQ ID NO:55]

Molecule: compactin
nuclear SREBP-2 (SREBP-2): increased | amounts of the different S1P bands (S1P): not altered

Kcat (cleavage of peptide-MCA) (mol/min/mol of enzyme) [1]: 0.16 | Km (Lineweaver-Burk plot, cleavage of peptide-MCA) [1]: 100 µM | Vmax (Lineweaver-Burk plot, cleavage of peptide-MCA) (nmol/min/mg protein) [1]: 1.6 | Relative Activity (cleavage of fluorogenic peptide-MCA, AMC liberated) (relative activity) [2]: < 0.1 | Relative Activity (cleavage of fluorogenic peptide-MCA, AMC liberated) (relative activity) [3]: < 0.1 | Relative Activity (cleavage of fluorogenic peptide-MCA, AMC liberated) (relative activity) [4]: < 0.1 | Relative Activity (cleavage of fluorogenic peptide-MCA, AMC liberated) (relative activity) [5]: 0.47 | Relative Activity (cleavage of fluorogenic peptide-MCA, AMC liberated) (relative activity) [6]: < 0.1 | Relative Activity (cleavage of fluorogenic peptide-MCA, AMC liberated) (relative activity) [7]: < 0.1 | Relative Activity (cleavage of fluorogenic peptide-MCA, AMC liberated) (relative activity) [8]: 1 | Relative Activity (cleavage of fluorogenic peptide-MCA, AMC liberated) (relative activity) [9]: < 0.1
B1: S1P(983)-C, purified secreted enzyme (enzyme)
chain: RAIPRQVAQTLQADVLWQMGYTGANVRVAVFDTGLSEKHPHFKNVKERTNWTNERTLDDGLGHGTFVAGVIASMRECQGFAPDAELHIFRVFTNNQVSYTSWFLDAFNYAILKKIDVLNLSIGGPDFMDHPFVDKVWELTANNVIMVSAIGNDGPLYGTLNNPADQMDVIGVGGIDFEDNIARFSSRGMTTWELPGGYGRVKPDIVTYGAGVRGSGVKGGCRALSGTSVASPVVAGAVTLLVSTVQKRELVNPASVKQALIASARRLPGVNMFEQGHGKLDLLRAYQILSSYKPQASLSPSYIDLTECPYMWPYCSQPIYYGGMPTIVNVTILNGMGVTGRIVDKPEWRPYLPQNGDNIEVAFSYSSVLWPWSGYLAISISVTKKAASWEGIAQGHIMITVASPAETEAKNGAEHTSTVKLPIKVKIIPTPPRSKRVLWDQYHNLRYPPGYFPRDNLRMKNDPLDWNGDHVHTNFRDMYQHLRSMGYFVEVLGAPFTCFDATQYGTLLMVDSEEEYFPEEIAKLRRDVDNGLSLVIFSDWYNTSVMRKVKFYDENTRQWWMPDTGGANIPALNELLSVWNMGFSDGLYEGEFALANHDMYYASGCSIAKFPEDGVVITQTFKDQGLEVLKQETAVVENVPILGLYQIPAEGGGRIVLYGDSNCLDDSHRQKDCFWLLDALLQYTSYGVNPPSLSHSGNRQRPPSGAGLAPPERMEGNHLHRYSKVLEAHLGDPKPRPLPACPHLSWAKPQPLNETAPSNLWKHQKLLSIDLDKVVLPNFRSNRPQVRPLSPGESGAWGGREQKLISEEDLGGEQKLISEEDLGPRFEQKLISEEDLDMHTGHHHHHH
